Test results as given in the RNAGym collection of RNA variant scans (doi:10.7554/elife.90254).

B1: OR4K15 (parent)
chain: GUUAACGGUCAUAGGCCAUGGAAACUAGGAGCACCAUUUCGCUGCCAGUGAAGAAAUGAACAAAGAAAAUCUGGGCCAGGCAGGCAUCAAAAGAAAUAGUCUUGCGCUCAACCAGAAAGUCUGUAAUCAUUUUAAGGGUA

Variants of: B1
Test: self-cleavage, relative activity (ratio to wild type); higher = more cleavage; in vitro, sequencing; the parent is a self-cleaving ribozyme

In order of rising self-cleavage:
1. A33C U108C  0.01
2. G28A U108A  0.01
3. A33G A114U  0.02
4. A33C A111G  0.03
5. A30U U103G  0.03
6. C32A U108C  0.03
7. G31C U108C  0.03
8. G31A U108C  0.03
9. A30G A111U  0.05
10. G29U A111G  0.05
11. A33G A114C  0.05
12. A33G A111U  0.06
13. A27U G115A  0.07
14. A30G A82C  0.07
15. A27U G79U  0.09
16. A30U G79U  0.09
17. A33G A114G  0.11
18. A33G G80A  0.12
19. G31A A82U  0.14
20. A33G A116C  0.14
21. A33G A110G  0.15
22. G28A A114U  0.18
23. A33G G74U  0.19
24. G31U A82G  0.19
25. A33G A116U  0.21
26. C32A G73U  0.21
27. A30U A82U  0.23
28. A33G A116G  0.24
29. G31U A110G  0.24
30. A33G G83U  0.24
31. A30U C101A  0.25
32. G31U A82U  0.27
33. G31A G73U  0.3
34. A33G A47G  0.32
35. A33G A66U  0.35
36. A30U C105U  0.4
37. A30G A56C  0.43
38. A33G A63G  0.45
39. A33G A118G  0.49
40. C32A A47G  0.49
41. A33G A64G  0.5
42. A30U A125G  0.5
43. A30U U103A  0.53
44. A33G A47U  0.57
45. A27U C61U  0.58
46. A30U A66U  0.65
47. G28U A118U  0.68
48. A33G A86G  0.7
49. A30G U124C  0.74
50. A27U A90G  0.74
51. A33G A63U  0.76
52. A33C A116G  0.76
53. A30G A98G  0.76
54. A33G A56G  0.77
55. A33G A98G  0.77
56. A30G U124A  0.78
57. G29U A118G  0.78
58. G28A U102C  0.81
59. A33G  0.82
60. G31A A47U  0.83
61. A30U U97C  0.83
62. A30G U122C  0.84
63. G28U A118G  0.84
64. A30G C61U  0.84
65. A27U U120C  0.85
66. A33G A55G  0.85
67. A30G A125G  0.87
68. A30G C40U  0.89
69. A30U A96G  0.89
70. C32U A47U  0.9
71. C32U U103C  0.91
72. A33G A91U  0.94
73. G31C U70A  0.94
74. A33G A54C  0.95
75. A30G A134G  0.98
76. A33C A118C  0.99
77. G31A A47G  1
78. A30G U43A  1.01
79. A33G C42G  1.02
80. A33G A68U  1.02
81. A30U U57A  1.02
82. A30U A126G  1.03
83. A33G A68G  1.04
84. A30G U120C  1.04
85. C32A A47U  1.05
86. A33G A54G  1.06
87. G29A U122C  1.08
88. A33G G93A  1.14
89. G28A A52U  1.15
90. A33G A36G  1.15
91. G29A A92G  1.16
92. A30G A69U  1.18
93. A30G A33U  1.18
94. G28A A91G  1.19
95. G31U U120C  1.21
96. G31A A54G  1.21
97. A30C U130C  1.21
98. A30U A135U  1.23
99. G29C U37C  1.25
100. C32U U130C  1.26
101. G31U A68G  1.26
102. G29A A96U  1.27
103. A30G A68U  1.28
104. A27U A134G  1.3
105. A30G U120A  1.3
106. A30U A90G  1.31
107. A30U U57C  1.31
108. G31U A90G  1.32
109. A33G A36U  1.33
110. A30U U132C  1.33
111. A30G A140G  1.34
112. A30C A89G  1.34
113. A33C  1.35
114. A33C U127C  1.38
115. A33C A59G  1.39
116. A30G U43C  1.39
117. G31A A56G  1.41
118. A27U U122C  1.42
119. A30C A55G  1.44
120. A30G A59G  1.5
121. A30G A135G  1.51
122. G31A  1.52
123. A30G A63G  1.57
124. A33C A60G  1.57
125. C32U U120C  1.57
126. G29U A33G  1.58
127. A33C A64C  1.61
128. G31C A56G  1.63
129. A33C A135G  1.64
130. A33C A51G  1.64
131. G28U A62G  1.64
132. G29A A86G  1.65
133. G29A C34U  1.67
134. A30U A66G  1.68
135. A30G A90U  1.68
136. A27U U70A  1.68
137. G31A U39C  1.68
138. A30C A140G  1.69
139. G28A A55G  1.7
140. G29A U130C  1.7
141. G31U  1.7
142. A30U A36G  1.71
143. C32U A52G  1.73
144. A27U U97C  1.75
145. C32U A36U  1.76
146. G31A U87A  1.76
147. G29C  1.78
148. A30G C128U  1.78
149. G31C  1.79
150. G31A A90G  1.8
151. G29A  1.82
152. G29U  1.83
153. G29A A92U  1.86
154. A33C A66G  1.88
155. G31A U130C  1.91
156. G31C U102C  1.92
157. A33C U49C  1.93
158. G31A A60C  1.95
159. A30G G119A  2.01
160. G31U A63G  2.02
161. A33C U39A  2.06
162. G28U A135C  2.26
163. A33C A51U  2.27
164. A30U G119A  2.38
165. G29C U100C  2.39
166. G29U C88U  2.55
167. A33C A96G  2.84
